The values that follow come from paper PMC5695104.

The target of the assay is recombinant H03-IPSE (Schistosoma haematobium). In words: SDS-PAGE under non-reducing and reducing conditions; 4-20% gradient gel, Coomassie stain and anti-His Western blot; protein purified by IMAC from serum-free culture supernatant; run non-reduced (NR) or reduced (R).

Take recombinant H03-IPSE (natural protein): the stoichiometry N was determined as 2.
